{
  "source": "patent US20090022687A1",
  "about": "“Novel Pharmaceuticals That Use Anti-HLA Antibodies” (Chugai Seiyaku Kabushiki Kaisha, priority 2005, published 2009)",
  "molecules": {"B1": {"name": "2D7: monoclonal antibody obtained by immunizing human myeloma cells; recognizes HLA class I (HLA-A) (antibody, V domains shown)", "VH": "QVQLQQSGPELVKPGASVKMSCKASGYTFTDYFIHWVKQRPGQGLEWIGWIFPGDDTTDYNEKFRGKTTLTADKSSSTAYILLSSLTSEDSAMYFCVRSDDFDYWGQGTTLTVSS", "VL": "QIVLTQSPAIMSASPGEKVTITCSASSSVSYMHWFQQKPGTFPKLWIYSTSNLASGVPTRFSGSGSGTSYSLTISRMEAEDAATYYCQQRTSYPPTFGSGTKLEIK"}},
  "key": {"[1]": {"system": "HLA class I on U266 cells", "test": "Cell surface expression analysis of HLA class I by flow cytometry", "format": "binding, human", "settings": "U266, myeloma cells; FITC-labeled mAb", "experimental": "(§1) Reactivity of 2D7 mAb in tumor cell lines and myeloma cells derived from multiple myeloma patients were assessed by flow cytometry.\n(§2) The tumor cell lines used were prepared as follows. The myeloma cell line RPMI 8226, B lymphoblastic cell lines (IM-9, Raji, H S-Sultan, and Daudi), the T lymphoblastic cell line CEM, the chronic myeloid leukemia cell line K562, the lung adenocarcinoma cell line A549, the colon adenocarcinoma cell line COLO 201, and the gastric adenocarcinoma cell line MKN-1 were obtained from the Health Science Resources Bank (Osaka, Japan). The myeloma cell line U266-B1, the B lymphoblastic cell line ARH-77, the T-lymphoblastic cell line Jurkat the breast cancer cell line MCF-7, the hepatocellular carcinoma HepG2, the clear cell renal cell carcinoma Caki-2, and the malignant melanoma MeWo were obtained from the American Type Culture Collection (Manassas, Va.). The EBV-transformed B-cell line YN was a gift from Dr. Yasuhiko Nishioka (The University of Tokushima). These cell lines were cultured in an RPM-1640 medium (Sigma-Aldrich, St. Louis, Mo.) supplemented with 10% fetal calf serum (Gibco BRL, Grand Island, N.Y.) and penicillin (100 U/mL) under a humidified atmosphere of 5% CO2 at 37° C.\n(§3) Cell surface expression analysis of HLA class I by flow cytometry was performed as follows using FITC-labeled 2D7 mAb or FITC-labeled anti-HLA-ABC common region mAb (Chemicon, San Diego, Calif.). The cells (5×10^5 cells) were washed twice with PBS, and then incubated on ice for 40 minutes with FITC-labeled 2D7 mAb or FITC-labeled anti-HLA-ABC common region mAb. MM patient-derived BMMCs were incubated on ice for 15 minutes with 2% γ globulin diluted in PBS, and stained with FITC-labeled 2D7 mAb and PE-labeled anti-CD38 mAb (BD Bioscience, San Jose, Calif.) for myeloma cell gating. Next, the cells were washed twice with PBS, and analyzed using an EPICS XL flow cytometer (Beckman Coulter, Japan). In several experiments, the cells were stimulated for 48 hours with IFNα or IFNγ prior to HLA class I expression analysis. HLA class I expression levels were evaluated as GeoMFI using the CellQuest software (BID Biosciences)."}, "[2]": {"system": "HLA class I on MCF-7 cells", "test": "Cell surface expression analysis of HLA class I by flow cytometry", "format": "binding, human", "settings": "MCF-7, breast cancer cells; FITC-labeled mAb", "experimental": "as §1, §2, §3"}, "[3]": {"system": "HLA class I on A549 cells", "test": "Cell surface expression analysis of HLA class I by flow cytometry", "format": "binding, human", "settings": "A549, lung adenocarcinoma cells; FITC-labeled mAb", "experimental": "as §1, §2, §3"}, "[4]": {"system": "HLA class I on HS-Sultan cells", "test": "Cell surface expression analysis of HLA class I by flow cytometry", "format": "binding, human", "settings": "B-lymphoblastic cells, FITC-labeled mAb", "experimental": "as §1, §2, §3"}, "[5]": {"system": "HLA class I on COLO 201 cells", "test": "Cell surface expression analysis of HLA class I by flow cytometry", "format": "binding, human", "settings": "COLO 201, colon adenocarcinoma cells; FITC-labeled mAb", "experimental": "as §1, §2, §3"}, "[6]": {"system": "HLA class I on MKN-1 cells", "test": "Cell surface expression analysis of HLA class I by flow cytometry", "format": "binding, human", "settings": "MKN-1, gastric adenocarcinoma cells; FITC-labeled mAb", "experimental": "as §1, §2, §3"}, "[7]": {"system": "HLA class I on MeWo cells", "test": "Cell surface expression analysis of HLA class I by flow cytometry", "format": "binding, human", "settings": "malignant melanoma, FITC-labeled mAb", "experimental": "as §1, §2, §3"}, "[8]": {"system": "HLA class I on IM-9 cells", "test": "Cell surface expression analysis of HLA class I by flow cytometry", "format": "binding, human", "settings": "IM-9, B-lymphoblastic cells; FITC-labeled mAb", "experimental": "as §1, §2, §3"}, "[9]": {"system": "HLA class I on Raji cells", "test": "Cell surface expression analysis of HLA class I by flow cytometry", "format": "binding, human", "settings": "B-lymphoblastic cells, FITC-labeled mAb", "experimental": "as §1, §2, §3"}, "HLA class I on YN cells": {"system": "HLA class I on YN cells", "test": "Cell surface expression analysis of HLA class I by flow cytometry", "format": "binding, human", "settings": "EBV-transformed B-cells, FITC-labeled mAb", "experimental": "as §1, §2, §3"}, "[10]": {"system": "HLA class I on Daudi cells", "test": "Cell surface expression analysis of HLA class I by flow cytometry", "format": "binding, human", "settings": "B-lymphoblastic cells, FITC-labeled mAb", "experimental": "as §1, §2, §3"}, "[11]": {"system": "HLA class I on ARH77 cells", "test": "Cell surface expression analysis of HLA class I by flow cytometry", "format": "binding, human", "settings": "ARH77, B-lymphoblastic cells; FITC-labeled mAb", "experimental": "as §1, §2, §3"}, "[12]": {"system": "HLA class I on Jurkat cells", "test": "Cell surface expression analysis of HLA class I by flow cytometry", "format": "binding, human", "settings": "T-lymphoblastic cells, FITC-labeled mAb", "experimental": "as §1, §2, §3"}, "[13]": {"system": "HLA class I on RPMI 8226 cells", "test": "Cell surface expression analysis of HLA class I by flow cytometry", "format": "binding, human", "settings": "RPMI 8226, myeloma cells; FITC-labeled mAb", "experimental": "as §1, §2, §3"}, "[14]": {"system": "HLA class I on K562 cells", "test": "Cell surface expression analysis of HLA class I by flow cytometry", "format": "binding, human", "settings": "K562, chronic myeloid leukemia cells; FITC-labeled mAb", "experimental": "as §1, §2, §3"}, "HLA class I on CEM cells": {"system": "HLA class I on CEM cells", "test": "Cell surface expression analysis of HLA class I by flow cytometry", "format": "binding, human", "settings": "T-lymphoblastic cells, FITC-labeled mAb", "experimental": "as §1, §2, §3"}, "IM-9 cells": {"system": "IM-9 cells", "test": "Cytotoxicity assay (WST-8 cell viability)", "format": "cell-based, human", "settings": "IM-9, 24 hours after cross-linking with the secondary antibody", "experimental": "In other experiments, cells were cultured with 2D7-DB in the absence of the goat anti-mouse IgG antibody. Cell viabilities were determined by WST-8 assays or Trypan Blue exclusion assays. […] (B) The morphological observations of myeloma cells after 2D7-DB treatment are shown. Purified MM cells derived from patient No. 18 were cultured for 24 hours in the presence (1 μg/mL) or absence of 2D7-DB. Next, cells were fixed on glass slides and stained with light Giemsa (original magnification,×1000). (C) A graph indicating the cytotoxic activity of 2D7-DB on the patients' MM cells is shown. CD138-positive MM cells were purified from six patients, and the cells were cultured for 24 hours with 2D7-DB (0.1 or 1μg/mL). Cell viabilities were determined by Trypan Blue exclusion assays.\nCytotoxicity assays were performed as follows. […] Cell viabilities were measured by WST-8 assays (Kishida Chemical, Osaka, Japan) for the cell lines, and by Trypan Blue dye exclusion assays for patient-derived primary MM cells. Apoptosis induction was assessed by flow cytometric analysis with Annexin V and PI staining (MEBCYTO apoptosis kit MBL, Nagoya, Japan).\nNext, cytotoxic effects of single chain Fv-type 2D7 mAb (2D7-DB) on MM cell lines and patient-derived MM cells were assessed. […]"}},
  "data": [
    {"molecule": "B1", "values": [
      {"measurement": "Expression (geometric mean fluorescence intensity)", "setting": "[1]", "result": 340},
      {"measurement": "Expression (geometric mean fluorescence intensity)", "setting": "[2]", "result": 29},
      {"measurement": "Expression (geometric mean fluorescence intensity)", "setting": "[3]", "result": 37},
      {"measurement": "Expression (geometric mean fluorescence intensity)", "setting": "[4]", "result": 285},
      {"measurement": "Expression (geometric mean fluorescence intensity)", "setting": "[5]", "result": 105},
      {"measurement": "Expression (geometric mean fluorescence intensity)", "setting": "[6]", "result": 49},
      {"measurement": "Expression (geometric mean fluorescence intensity)", "setting": "[7]", "result": 21},
      {"measurement": "Expression (geometric mean fluorescence intensity)", "setting": "[8]", "result": 662},
      {"measurement": "Expression (geometric mean fluorescence intensity)", "setting": "[9]", "result": 297},
      {"measurement": "Expression (geometric mean fluorescence intensity)", "setting": "HLA class I on YN cells", "result": 804},
      {"measurement": "Expression (geometric mean fluorescence intensity)", "setting": "[10]", "result": 2},
      {"measurement": "Expression (geometric mean fluorescence intensity)", "setting": "[11]", "result": 3727},
      {"measurement": "Expression (geometric mean fluorescence intensity)", "setting": "[12]", "result": 111},
      {"measurement": "Expression (geometric mean fluorescence intensity)", "setting": "[13]", "result": 509},
      {"measurement": "Expression (geometric mean fluorescence intensity)", "setting": "[14]", "result": 11},
      {"measurement": "Expression (geometric mean fluorescence intensity)", "setting": "HLA class I on CEM cells", "result": 72},
      {"measurement": "inhibition of cell viability", "setting": "IM-9 cells", "result": "more efficiently than W6/32, B9.12.1, and JOAN-1"}
    ]}
  ]
}
